Source: paper PMC9714796 (2022)

Biological target: T1, TGF-βRII-Fc (muTGFbRII-mFc) (mouse (from the printed name …, UniProt Q62312 24-166))
T1 chain: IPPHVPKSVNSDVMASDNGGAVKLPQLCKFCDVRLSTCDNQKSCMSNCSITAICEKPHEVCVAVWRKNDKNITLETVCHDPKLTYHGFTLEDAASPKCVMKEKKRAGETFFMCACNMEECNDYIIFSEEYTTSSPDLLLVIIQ
Test: SPR

koff: 0.0013 s⁻¹
B1: Transforming growth factor-β3 (TGF-β3) (ligand)
chain: ALDTNYCFRNLEENCCVRPLYIDFRQDLGWKWVHEPKGYYANFCSGPCPYLRSADTTHSTVLGLYNTLNPEASASPCCVPQDLEPLTILYYVGRTPKVEQLSNMVVKSCKCS
